Assay results as given in US10131702B2, “Glucagon-GLP-1-GIP triple agonist compounds” (priority 2013, dated 2018).

T1: human GIP receptor (human, UniProt P48546 22-466)
T1 sequence: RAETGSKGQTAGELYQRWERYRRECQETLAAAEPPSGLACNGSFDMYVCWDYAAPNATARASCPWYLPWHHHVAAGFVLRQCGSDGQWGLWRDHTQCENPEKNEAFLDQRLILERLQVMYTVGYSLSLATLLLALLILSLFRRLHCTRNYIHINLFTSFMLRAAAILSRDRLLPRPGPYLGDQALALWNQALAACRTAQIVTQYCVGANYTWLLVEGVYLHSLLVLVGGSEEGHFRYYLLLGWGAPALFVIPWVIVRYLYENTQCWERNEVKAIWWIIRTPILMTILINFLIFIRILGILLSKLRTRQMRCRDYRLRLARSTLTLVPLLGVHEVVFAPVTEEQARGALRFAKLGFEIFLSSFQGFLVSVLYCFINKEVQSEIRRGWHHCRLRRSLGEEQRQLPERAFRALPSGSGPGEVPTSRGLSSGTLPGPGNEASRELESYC

B1: Compound 10 (peptide)
peptide: YAQGTFTSDYSIYLDSKAAKDFVEWLLSA
HELM: PEPTIDE1{Y.[Aib].Q.G.T.F.T.S.D.Y.S.I.Y.L.D.S.K.A.A.K.D.F.V.E.W.L.L.S.A.[am]}$$$$V2.0
SMILES: CC[C@H](C)[C@H](NC(=O)[C@H](CO)NC(=O)[C@H](Cc1ccc(O)cc1)NC(=O)[C@H](CC(=O)O)NC(=O)[C@H](CO)NC(=O)[C@@H](NC(=O)[C@H](Cc1ccccc1)NC(=O)[C@@H](NC(=O)CNC(=O)[C@H](CCC(N)=O)NC(=O)C(C)(C)NC(=O)[C@@H](N)Cc1ccc(O)cc1)[C@@H](C)O)[C@@H](C)O)C(=O)N[C@@H](Cc1ccc(O)cc1)C(=O)N[C@@H](CC(C)C)C(=O)N[C@@H](CC(=O)O)C(=O)N[C@@H](CO)C(=O)N[C@@H](CCCCN)C(=O)N[C@@H](C)C(=O)N[C@@H](C)C(=O)N[C@@H](CCCCN)C(=O)N[C@@H](CC(=O)O)C(=O)N[C@@H](Cc1ccccc1)C(=O)N[C@H](C(=O)N[C@@H](CCC(=O)O)C(=O)N[C@@H](Cc1c[nH]c2ccccc12)C(=O)N[C@@H](CC(C)C)C(=O)N[C@@H](CC(C)C)C(=O)N[C@@H](CO)C(=O)N[C@@H](C)C(N)=O)C(C)C
B2: Compound 7 (peptide)
peptide: YAQGTFTSDYSKALDSKAAHDFVEWLLSA
HELM: PEPTIDE1{Y.[Aib].Q.G.T.F.T.S.D.Y.S.K.A.L.D.S.K.A.A.H.D.F.V.E.W.L.L.S.A.[am]}$$$$V2.0
SMILES: CC(C)C[C@H](NC(=O)[C@H](C)NC(=O)[C@H](CCCCN)NC(=O)[C@H](CO)NC(=O)[C@H](Cc1ccc(O)cc1)NC(=O)[C@H](CC(=O)O)NC(=O)[C@H](CO)NC(=O)[C@@H](NC(=O)[C@H](Cc1ccccc1)NC(=O)[C@@H](NC(=O)CNC(=O)[C@H](CCC(N)=O)NC(=O)C(C)(C)NC(=O)[C@@H](N)Cc1ccc(O)cc1)[C@@H](C)O)[C@@H](C)O)C(=O)N[C@@H](CC(=O)O)C(=O)N[C@@H](CO)C(=O)N[C@@H](CCCCN)C(=O)N[C@@H](C)C(=O)N[C@@H](C)C(=O)N[C@@H](Cc1c[nH]cn1)C(=O)N[C@@H](CC(=O)O)C(=O)N[C@@H](Cc1ccccc1)C(=O)N[C@H](C(=O)N[C@@H](CCC(=O)O)C(=O)N[C@@H](Cc1c[nH]c2ccccc12)C(=O)N[C@@H](CC(C)C)C(=O)N[C@@H](CC(C)C)C(=O)N[C@@H](CO)C(=O)N[C@@H](C)C(N)=O)C(C)C
B3: Compound 8 (peptide)
peptide: YAQGTFTSDYSKYLESKAAHDFVEWLLSA
HELM: PEPTIDE1{Y.[Aib].Q.G.T.F.T.S.D.Y.S.K.Y.L.E.S.K.A.A.H.D.F.V.E.W.L.L.S.A.[am]}$$$$V2.0
SMILES: CC(C)C[C@H](NC(=O)[C@H](CC(C)C)NC(=O)[C@H](Cc1c[nH]c2ccccc12)NC(=O)[C@H](CCC(=O)O)NC(=O)[C@@H](NC(=O)[C@H](Cc1ccccc1)NC(=O)[C@H](CC(=O)O)NC(=O)[C@H](Cc1c[nH]cn1)NC(=O)[C@H](C)NC(=O)[C@H](C)NC(=O)[C@H](CCCCN)NC(=O)[C@H](CO)NC(=O)[C@H](CCC(=O)O)NC(=O)[C@H](CC(C)C)NC(=O)[C@H](Cc1ccc(O)cc1)NC(=O)[C@H](CCCCN)NC(=O)[C@H](CO)NC(=O)[C@H](Cc1ccc(O)cc1)NC(=O)[C@H](CC(=O)O)NC(=O)[C@H](CO)NC(=O)[C@@H](NC(=O)[C@H](Cc1ccccc1)NC(=O)[C@@H](NC(=O)CNC(=O)[C@H](CCC(N)=O)NC(=O)C(C)(C)NC(=O)[C@@H](N)Cc1ccc(O)cc1)[C@@H](C)O)[C@@H](C)O)C(C)C)C(=O)N[C@@H](CO)C(=O)N[C@@H](C)C(N)=O
B4: Compound 12 (peptide)
peptide: YAQGTFTSDYSIYLDSKAAHDFVEWLLRA
HELM: PEPTIDE1{Y.[Aib].Q.G.T.F.T.S.D.Y.S.I.Y.L.D.S.K.A.A.H.D.F.V.E.W.L.L.R.A.[am]}$$$$V2.0
SMILES: CC[C@H](C)[C@H](NC(=O)[C@H](CO)NC(=O)[C@H](Cc1ccc(O)cc1)NC(=O)[C@H](CC(=O)O)NC(=O)[C@H](CO)NC(=O)[C@@H](NC(=O)[C@H](Cc1ccccc1)NC(=O)[C@@H](NC(=O)CNC(=O)[C@H](CCC(N)=O)NC(=O)C(C)(C)NC(=O)[C@@H](N)Cc1ccc(O)cc1)[C@@H](C)O)[C@@H](C)O)C(=O)N[C@@H](Cc1ccc(O)cc1)C(=O)N[C@@H](CC(C)C)C(=O)N[C@@H](CC(=O)O)C(=O)N[C@@H](CO)C(=O)N[C@@H](CCCCN)C(=O)N[C@@H](C)C(=O)N[C@@H](C)C(=O)N[C@@H](Cc1c[nH]cn1)C(=O)N[C@@H](CC(=O)O)C(=O)N[C@@H](Cc1ccccc1)C(=O)N[C@H](C(=O)N[C@@H](CCC(=O)O)C(=O)N[C@@H](Cc1c[nH]c2ccccc12)C(=O)N[C@@H](CC(C)C)C(=O)N[C@@H](CC(C)C)C(=O)N[C@@H](CCCNC(=N)N)C(=O)N[C@@H](C)C(N)=O)C(C)C
B5: Compound 9 (peptide)
peptide: YAQGTFTSDYSIYLDEKAAHDFVEWLLSA
HELM: PEPTIDE1{Y.[Aib].Q.G.T.F.T.S.D.Y.S.I.Y.L.D.E.K.A.A.H.D.F.V.E.W.L.L.S.A.[am]}$$$$V2.0
SMILES: CC[C@H](C)[C@H](NC(=O)[C@H](CO)NC(=O)[C@H](Cc1ccc(O)cc1)NC(=O)[C@H](CC(=O)O)NC(=O)[C@H](CO)NC(=O)[C@@H](NC(=O)[C@H](Cc1ccccc1)NC(=O)[C@@H](NC(=O)CNC(=O)[C@H](CCC(N)=O)NC(=O)C(C)(C)NC(=O)[C@@H](N)Cc1ccc(O)cc1)[C@@H](C)O)[C@@H](C)O)C(=O)N[C@@H](Cc1ccc(O)cc1)C(=O)N[C@@H](CC(C)C)C(=O)N[C@@H](CC(=O)O)C(=O)N[C@@H](CCC(=O)O)C(=O)N[C@@H](CCCCN)C(=O)N[C@@H](C)C(=O)N[C@@H](C)C(=O)N[C@@H](Cc1c[nH]cn1)C(=O)N[C@@H](CC(=O)O)C(=O)N[C@@H](Cc1ccccc1)C(=O)N[C@H](C(=O)N[C@@H](CCC(=O)O)C(=O)N[C@@H](Cc1c[nH]c2ccccc12)C(=O)N[C@@H](CC(C)C)C(=O)N[C@@H](CC(C)C)C(=O)N[C@@H](CO)C(=O)N[C@@H](C)C(N)=O)C(C)C
B6: Compound 11 (peptide)
peptide: YAQGTFTSDYSIYLDSKAAHDFVNWLLSA
HELM: PEPTIDE1{Y.[Aib].Q.G.T.F.T.S.D.Y.S.I.Y.L.D.S.K.A.A.H.D.F.V.N.W.L.L.S.A.[am]}$$$$V2.0
SMILES: CC[C@H](C)[C@H](NC(=O)[C@H](CO)NC(=O)[C@H](Cc1ccc(O)cc1)NC(=O)[C@H](CC(=O)O)NC(=O)[C@H](CO)NC(=O)[C@@H](NC(=O)[C@H](Cc1ccccc1)NC(=O)[C@@H](NC(=O)CNC(=O)[C@H](CCC(N)=O)NC(=O)C(C)(C)NC(=O)[C@@H](N)Cc1ccc(O)cc1)[C@@H](C)O)[C@@H](C)O)C(=O)N[C@@H](Cc1ccc(O)cc1)C(=O)N[C@@H](CC(C)C)C(=O)N[C@@H](CC(=O)O)C(=O)N[C@@H](CO)C(=O)N[C@@H](CCCCN)C(=O)N[C@@H](C)C(=O)N[C@@H](C)C(=O)N[C@@H](Cc1c[nH]cn1)C(=O)N[C@@H](CC(=O)O)C(=O)N[C@@H](Cc1ccccc1)C(=O)N[C@H](C(=O)N[C@@H](CC(N)=O)C(=O)N[C@@H](Cc1c[nH]c2ccccc12)C(=O)N[C@@H](CC(C)C)C(=O)N[C@@H](CC(C)C)C(=O)N[C@@H](CO)C(=O)N[C@@H](C)C(N)=O)C(C)C

These binders were tested against T1, human GIP receptor (assay: cell-based or functional assay).

Binder	EC50 (cAMP induction) [pM]
B1	240
B2	420
B3	200
B4	84
B5	56
B6	280

What follows are binders tested against T2, human glucagon-like peptide 1 receptor (human, UniProt P43220 24-463) (assay: cell-based or functional assay).

Binder	EC50 (cAMP induction) [pM]
B1	12
B2	31
B3	15
B4	12
B5	5.5
B6	20

These binders were tested against T3, human glucagon receptor (human, UniProt P47871 26-477) (assay: cell-based or functional assay).
T3 sequence (P47871 26-477): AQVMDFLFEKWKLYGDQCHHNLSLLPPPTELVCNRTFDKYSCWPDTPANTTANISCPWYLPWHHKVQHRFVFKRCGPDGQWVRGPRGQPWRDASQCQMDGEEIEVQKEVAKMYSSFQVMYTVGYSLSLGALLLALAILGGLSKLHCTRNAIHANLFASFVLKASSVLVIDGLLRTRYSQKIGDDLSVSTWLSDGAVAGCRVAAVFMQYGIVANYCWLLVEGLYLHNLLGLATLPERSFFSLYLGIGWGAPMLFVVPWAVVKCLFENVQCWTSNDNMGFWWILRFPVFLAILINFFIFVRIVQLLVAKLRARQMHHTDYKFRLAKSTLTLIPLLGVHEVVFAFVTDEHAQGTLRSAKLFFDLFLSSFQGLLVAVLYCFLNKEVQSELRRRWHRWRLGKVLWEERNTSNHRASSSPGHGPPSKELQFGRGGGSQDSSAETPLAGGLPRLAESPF

Binder	EC50 (cAMP induction) [pM]
B1	100
B2	86
B3	42
B4	76
B5	97
B6	110

Biological target: T1, human GIP receptor
Test: cell-based or functional assay
Remark: another data set of the same source

Binder	EC50 (cAMP induction) [pM]
B1	12
B2	31
B3	15
B4	12
B5	6
B6	20

Biological target: T2, human glucagon-like peptide 1 receptor
Test: cell-based or functional assay
Remark: another data set of the same source

Binder	EC50 (cAMP induction) [pM]
B1	100
B2	86
B3	42
B4	76
B5	97
B6	110

Biological target: T3, human glucagon receptor
Test: cell-based or functional assay
Remark: another data set of the same source

Binder	EC50 (cAMP induction) [pM]
B1	100
B2	86
B3	42
B4	76
B5	97
B6	110
